These results are taken from patent US20240327884A1, “ATP-PRT VARIANT WITH REDUCED FEEDBACK INHIBITION BY HISTIDINE, AND HISTIDINE-PRODUCING STRAIN EXPRESSING SAME” (priority 2020, published 2024).

For the assay, the target named is T1, ATP phosphoribosyltransferase (Escherichia coli, UniProt P60757, E271K/H232T/R250H/S288P/T252L).
T1 construct: made in house; supernatant of sonicated cells
In kind it is biochemical, E. coli. To be noted: comparison of hisG_WT, hisG_SDM4, hisG_SDM7. On the procedure:
Each strain was cultured under conditions of 30° C. and 180 rpm. When the OD600 reached 0.6, ATP-PRT expression was induced with 1 mM IPTG (final concentration) and additional culture was performed for about 4 hours. The cells obtained after culturing were sonicated and centrifuged. The obtained supernatants were used for evaluation of ATP phosphoribosyltransferase activity. […] The protein in each supernatant was quantified to match the concentration, and the enzyme activity was measured after mixing the reactants according to the reaction composition shown in Table 8 below.
The activity was measured at 30° C. at a UV wavelength of 290 nm at 2 minute intervals for 30 minutes.

B1: hisG_SDM7: ATP-PRT variant containing H232T, R250H, T252L, E271K and S288P mutations (protein)
chain: MTDNTRLRIAMQKSGRLSDDSRELLARCGIKINLHTQRLIAMAENMPIDILRVRDDDIPGLVMDGVVDLGIIGENVLEEELLNRRAQGEDPRYFTLRRLDFGGCRLSLATPVDEAWDGPLSLNGKRIATSYPHLLKRYLDQKGISFKSCLLNGSVEVAPRAGLADAICDLVSTGATLEANGLREVEVIYRSKACLIQRDGEMEESKQQLIDKLLTRIQGVIQARESKYIMMTAPTERLDEVIALLPGAEHPLILPLAGDQQRVAMHMVSSKTLFWETMEKLKALGASPILVLPIEKMME
modifications: hisG_SDM7
notes: ATP-PRT variant containing H232T, R250H, T252L, E271K and S288P mutations
In the case of B1, the “Resistance to activity inhibition by histidine” value is listed as “best resistance”.
